# Values of other authors as cited in paper PMC7031699.
# Like-named read-outs stand apart in the source and are kept apart here.
# Assays:
# [1] = molecular target: Gq (Homo sapiens) (UniProt P50148)
# [2] = molecular target: Gq (Homo sapiens) (UniProt P50148); remark: listed apart in the source
# Sequence of UniProt P50148 (P50148 whole entry): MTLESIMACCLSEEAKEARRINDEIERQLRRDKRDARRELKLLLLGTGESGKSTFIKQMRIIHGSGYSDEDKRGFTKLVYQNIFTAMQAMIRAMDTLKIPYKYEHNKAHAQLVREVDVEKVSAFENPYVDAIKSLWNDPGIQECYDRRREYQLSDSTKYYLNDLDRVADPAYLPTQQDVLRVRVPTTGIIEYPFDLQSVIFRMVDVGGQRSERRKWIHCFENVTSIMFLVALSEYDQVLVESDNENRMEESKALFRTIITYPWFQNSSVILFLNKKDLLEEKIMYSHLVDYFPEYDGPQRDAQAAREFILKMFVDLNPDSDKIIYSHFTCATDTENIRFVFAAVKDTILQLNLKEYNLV
substance,measurement,setting,value
NTS1 (from UniProt P20789),Kd,[1],550 nM
same,Kd,[2],> 5000 nM
